Results from patent US20120093799A1, “RECOMBINANTLY MODIFIED PLASMIN” (priority 2007, published 2012).
Several values for one entry are separate records, joined by “and”; a condition that tells them apart may be missing. Equal entries are not always repeated. Blank lines part the entries; values can stand above or below the molecule they belong to.

What was measured:
[1] = binding of ε-ACA measured by changes in protein fluorescence; details: 50 mM Tris, 20 mM NaCl, pH 8.0, 25° C.; 0-50 μM ε-ACA
Protocol: To further confirm the functionality of kringle 1, the binding of ε-ACA to (TAL6003)-plasminogen was measured by monitoring the associated changes in protein fluorescence as described by Matsuka et al., Eur. J. Biochem. 190: 93-97 (1990) and Douglas et al., J. Biochemistry 41: 3302-3310 (2002), all incorporated herein by reference. Binding of ε-ACA to kringle 1 of (TAL6003)-plasminogen results in a decrease in fluorescence, likely due to quenching of the tryptophan residues which are part of the lysine-binding site.
To monitor this process, 4 μL to 16 μL aliquots of a concentrated solution of ε-ACA were added to 2 mL of 5 μM (TAL6003)-plasminogen in 50 mM Tris buffer containing 20 mM NaCl, pH 8.0, 25° C. The fluorescence was monitored at an excitation wavelength of 298 nm and an emission wavelength of 340 nm in a FLUOROMAX fluorescence spectrophotometer (Jobin Yvon, Inc., Edison, N.J.); after each addition of ε-ACA, the solution was allowed to equilibrate until no further changes in fluorescence were observed.
The resulting fluorescence values were corrected for dilution and plotted versus the concentration of ε-ACA over a range of 0-50 μM ε-ACA.

[2] = binding to lysine-SEPHAROSE 4B column, elution with ε-ACA gradient
Protocol: FIG. 7 is a chromatogram showing binding of (TAL6003)-plasminogen to lysine-SEPHAROSE™ 4B: 0.5 mg of purified (TAL6003)-plasminogen was applied on the lysine-SEPHAROSE™ 4B column (1×3 cm) equilibrated with Tris-buffered saline, pH 7.4. Bound protein was eluted from the column by a 0-20 mM gradient of ε-aminocaproic acid (ε-ACA) as a single peak. The absorbance at 280 nm and the concentration of ε-ACA, as a function of the effluent volume are presented on the graph.
To confirm the functionality of kringle 1, we determined the binding of TAL6003-plasminogen to lysine-SEPHAROSE™ 4B.

fibrin = fibrin binding microtiter plate assay (activation by tPA and resulting clot lysis)
Protocol: One property of plasminogen is its ability to bind fibrin. In order to determine whether (TAL6003)-plasminogen retains the ability to interact with fibrin, its fibrin-binding properties was tested in a microtiter plate assay in which binding of (TAL6003)-plasminogen to fibrin was assessed by its subsequent activation by tPA and resulting clot lysis. For this purpose, 100 μL of 5 mg/mL fibrinogen was polymerized with thrombin in each well of a microtiter plate. Various concentrations of (TAL6003)-plasminogen was added on top of the fibrin clots and incubated for 1 hour at 37° C. The plate was washed extensively with PBS while the fibrin clots are still intact and attached to the wells. After washing, a 0.1 mg/mL solution of tPA was added to each well and the plate was incubated 2 hours at 37° C. As a result, some of the clots were completely dissolved and some were partially dissolved, while wells with very low amounts of (TAL6003)-plasminogen and control wells remained practically intact. The degree of fibrinolysis was monitored by measuring the 280 nm absorbance of remainders of the initial clots reconstituted in 1 M NaOH. The absorbance values were plotted as a function of (TAL6003)-plasminogen concentration.

[3] = pNPGB active site titration; type: biochemical
Protocol: (§1) Correcting kcat for percent active sites, a kcat of about 725 min^−1 was determined. This value was very close to the value determined in the same assay for full-length plasmin, 820±23 min^−1 and for micro-plasmin (lacking all five kringles), 795±24 min^−1.

[4] = amidolytic activity with plasmin substrate S-2251, steady-state kinetics; type: biochemical; details: substrate S-2251, PBS buffer, pH 7.4, 25° C.; for kcat: for (TAL6003)-plasmin corrected for percent active sites
Protocol: The amidolytic activity of (TAL6003)-plasmin was examined using the plasmin substrate D-Val-Leu-Lys-p-nitroanilide (S-2251) (DiaPharma, West Chester, Ohio).
as §1

α2-antiplasmin [5] = target: T1, α2-antiplasmin (Homo sapiens, UniProt P08697); experiment: rate of inhibition by α2-antiplasmin (method of Wiman and Collen, S-2251 activity at time points); type: biochemical; details: 22° C. in PBS buffer, pH 7.4
T1 sequence (P08697 40-491): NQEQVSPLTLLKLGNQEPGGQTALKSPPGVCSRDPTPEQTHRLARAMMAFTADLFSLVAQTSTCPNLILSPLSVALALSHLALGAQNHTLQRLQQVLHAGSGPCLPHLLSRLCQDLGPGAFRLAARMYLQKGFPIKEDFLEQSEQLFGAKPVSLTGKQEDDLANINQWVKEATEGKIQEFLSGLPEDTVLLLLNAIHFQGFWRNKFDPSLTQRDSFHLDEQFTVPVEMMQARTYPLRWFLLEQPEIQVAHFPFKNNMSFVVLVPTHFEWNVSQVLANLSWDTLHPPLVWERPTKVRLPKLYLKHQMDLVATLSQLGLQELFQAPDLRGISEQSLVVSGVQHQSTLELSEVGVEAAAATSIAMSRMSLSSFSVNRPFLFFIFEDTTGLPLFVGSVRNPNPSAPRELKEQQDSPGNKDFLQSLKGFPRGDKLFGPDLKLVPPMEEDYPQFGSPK
Protocol: The rate of inhibition of (TAL6003)-plasmin by α2-antiplasmin was determined to be 1.8±0.06×10^7 M^−1 s^−1 using the method of Wiman and Collen (Wiman, B. and D. Collen, Eur. J. Biochem. 84: 573-578 (1978)) in which plasmin and α2-antiplasmin are mixed then assayed for S-2251 activity at specific time points (Table 3).
Literature values are taken from Anonick, et al., Thrombosis Res. 59: 449 (1990). All rates were measured according to the methods published in Anonick, et al.

[6] = stability and formulation pH; type: physicochemical
From the text: As shown previously for plasmin by Novokhatny et al., J. Thromb. Haemost. […] When mixed with plasma or neutral pH buffers, (TAL6003)-plasmin is quickly re-activated.

[7] = amidolytic activity with plasmin substrate S-2251, steady-state kinetics; type: biochemical; details: S-2251, PBS, pH 7.4, 25° C.; before correction for percent active sites
α2-antiplasmin [8] = target: T1, α2-antiplasmin; details: from Anonick et al., cited from earlier work

Kd [1]: ~19 µM
ε-ACA concentration at elution peak from lysine-SEPHAROSE ([2]; 0-20 mM ε-ACA gradient, single peak): about 4 mM
binding to lysine-SEPHAROSE 4B ([2]; column equilibrated with Tris-buffered saline, pH 7.4): bound to lysine-SEPHAROSE™
EC50 (fibrin; 1 hour at 37° C. on fibrin clots, then tPA 2 hours, read-out: C50 of fibrin binding): ~0.3 µM
B1: (TAL6003)-plasminogen: recombinant plasminogen deletion mutant, single kringle plus serine protease domain, amino acid sequence SEQ ID NO: 2, expressed in E. coli (protein)
chain: MRDVVLFEKKVYLSECKTGNGKNYRGTMSKTKNGITCQKWSSTSPHRPRFSPATHPSEGLEENYCRNPDNDPQGPWCYTTDPEKRYDYCDVPQCAAPSFDCGKPQVEPKKCPGRVVGGCVAHPHSWPWQVSLRTRFGMHFCGGTLISPEWVLTAAHCLEKSPRPSSYKVILGAHQEVNLEPHVQEIEVSRLFLEPTRKDIALLKLSSPAVITDKVIPACLPSPNYVVADRTECFITGWGETQGTFGAGLLKEAQLPVIENKVCNRYEFLNGRVQSTELCAGHLAGGTDSCQGDSGGPLVCFEKDKYILQGVTSWGLGCARPNKPGVYVRVSRFVTWIEGVMRNN
modifications: Polypeptide having a single N-terminal kringle domain homologous to a kringle domain of a native human plasminogen
fibrin binding affinity (fibrin; relative to full-length plasminogen): comparable to that of full-length plasminogen

rate of inhibition by α2-antiplasmin (α2-antiplasmin [5]): 1.8±0.06×10^7 M^−1 s^−1
B2: (TAL6003)-plasmin: two-chain active enzyme obtained by streptokinase activation of (TAL6003)-plasminogen (protein)
chain: B1 chain
modifications: Polypeptide having a single N-terminal kringle domain homologous to a kringle domain of a native human plasminogen
percent of functional active sites [3]: 67%
Km [4]: 141 µM
storage stability in the final formulation ([6]; pH 3.6, acidified with acetic acid-saline, low buffering capacity): allows safe storage of active plasmins for prolonged periods of time
stability at physiological pH ([6]; physiological pH): prone to auto-degradation
kcat for the preparation [7]: about 725 min−1

B3: plasmin: native full-length human plasmin with five kringle domains and serine protease domain (protein, UniProt P00747 20-580; P00747 581-810, looked up)
Plasmin heavy chain A: EPLDDYVNTQGASLFSVTKKQLGAGSIEECAAKCEEDEEFTCRAFQYHSKEQQCVIMAENRKSSIIIRMRDVVLFEKKVYLSECKTGNGKNYRGTMSKTKNGITCQKWSSTSPHRPRFSPATHPSEGLEENYCRNPDNDPQGPWCYTTDPEKRYDYCDILECEEECMHCSGENYDGKISKTMSGLECQAWDSQSPHAHGYIPSKFPNKNLKKNYCRNPDRELRPWCFTTDPNKRWELCDIPRCTTPPPSSGPTYQCLKGTGENYRGNVAVTVSGHTCQHWSAQTPHTHNRTPENFPCKNLDENYCRNPDGKRAPWCHTTNSQVRWEYCKIPSCDSSPVSTEQLAPTAPPELTPVVQDCYHGDGQSYRGTSSTTTTGKKCQSWSSMTPHRHQKTPENYPNAGLTMNYCRNPDADKGPWCFTTDPSVRWEYCNLKKCSGTEASVVAPPPVVLLPDVETPSEEDCMFGNGKGYRGKRATTVTGTPCQDWAAQEPHRHSIFTPETNPRAGLEKNYCRNPDGDVGGPWCYTTNPRKLYDYCDVPQCAAPSFDCGKPQVEPKKCPGR
Plasmin light chain B: VVGGCVAHPHSWPWQVSLRTRFGMHFCGGTLISPEWVLTAAHCLEKSPRPSSYKVILGAHQEVNLEPHVQEIEVSRLFLEPTRKDIALLKLSSPAVITDKVIPACLPSPNYVVADRTECFITGWGETQGTFGAGLLKEAQLPVIENKVCNRYEFLNGRVQSTELCAGHLAGGTDSCQGDSGGPLVCFEKDKYILQGVTSWGLGCARPNKPGVYVRVSRFVTWIEGVMRNN
modifications: plasmin
notes: native full-length human plasmin with five kringle domains and serine protease domain
Km [4]: 220 ± 9 µM
kcat [4]: 13.7 ± 0.383 s⁻¹
kcat ([4]; listed as full-length plasmin): 13.7 ± 0.383 s⁻¹
rate of inhibition by α2-antiplasmin (literature value, table) (α2-antiplasmin [8]; 22° C. in PBS buffer, pH 7.4): 2.5 ± 0.5 × 10^7 M^−1 s^−1
rate of inhibition by α2-antiplasmin (reported value, text) (α2-antiplasmin [8]; Thrombosis Res. 59: 449 (1990)): 2.5×10^7 M^−s^−1

B4: mini-plasmin: activated mini-plasminogen; domain composition K5-SP (kringle 5 and serine protease domain) (protein)
chain: VAPPPVVLLPDVETPSEEDCMFGNGKGYRGKRATTVTGTPCQDWAAQEPHRHSIFTPETNPRAGLEKNYCRNPDGDVGGPWCYTTNPRKLYDYCDVPQCAAPSFDCGKPQVEPKKCPGRVVGGCVAHPHSWPWQVSLRTRFGMHFCGGTLISPEWVLTAAHCLEKSPRPSSYKVILGAHQEVNLEPHVQEIEVSRLFLEPTRKDIALLKLSSPAVITDKVIPACLPSPNYVVADRTECFITGWGETQGTFGAGLLKEAQLPVIENKVCNRYEFLNGRVQSTELCAGHLAGGTDSCQGDSGGPLVCFEKDKYILQGVTSWGLGCARPNKPGVYVRVSRFVTWIEGVMRNN
Km [4]: 160 ± 30 µM
kcat [4]: 12.8 ± 1.17 s⁻¹
rate of inhibition by α2-antiplasmin (α2-antiplasmin [5]): 2.4×10^5 M^−1 s^−1 and 2.4 ± 0.5 × 10^5 M^−1 s^−1

rate of inhibition by α2-antiplasmin (α2-antiplasmin [5]): 1.8 ± 0.2 × 10^5 M^−1 s^−1
B5: micro-plasmin: plasmin species lacking all five kringles (protein)
chain: APSFDCGKPQVEPKKCPGRVVGGCVAHPHSWPWQVSLRTRFGMHFCGGTLISPEWVLTAAHCLEKSPRPSSYKVILGAHQEVNLEPHVQEIEVSRLFLEPTRKDIALLKLSSPAVITDKVIPACLPSPNYVVADRTECFITGWGETQGTFGAGLLKEAQLPVIENKVCNRYEFLNGRVQSTELCAGHLAGGTDSCQGDSGGPLVCFEKDKYILQGVTSWGLGCARPNKPGVYVRVSRFVTWIEGVMRNN
Km [4]: 145 ± 13 µM
kcat [4]: 13.2 ± 0.4 s⁻¹
